Assay [1] concerns the target Herceptin Fab with a kappa light chain and binding specificity for Her2/neu (from the monoclonal antibody trastuzumab). Description: BLI (ForteBio), biotinylated ligand on sensor, 1:1 fit.
In assay [2] the target is Tremfya Fab with a lambda light chain and binding specificity for IL23 (from the monoclonal antibody guselkumab). The description is as above.
Assay [3] deals with dimeric human IgG-lambda (Southern Biotech, Birmingham AL). The assay is described as above.
Assay [4] addresses Herceptin Fab with a kappa light chain and binding specificity for Her2/neu (from the monoclonal antibody trastuzumab). Description: BLI (ForteBio), biotinylated ligand on sensor, as in Example 2.
Assay [5] concerns the target Tremfya Fab with a lambda light chain and binding specificity for IL23 (from the monoclonal antibody guselkumab). The description is as above.
Assay [6] deals with dimeric human IgG-lambda (Southern Biotech, Birmingham AL). Described as above.
The target of assay [7] is Ajovy (IgG2 monoclonal antibody). Briefly: BLI, biotinylated ligand on sensor; 'Binding affinity (nM)'.
The target in assay [8] is Dupixent (IgG4 monoclonal antibody). The assay is described as above.
In assay [9] the target is Praluent (IgG1 monoclonal antibody). The description is as above.

Numbering of substitutions follows the chain as printed.

B1: affinity ligand SEQ ID NO: 89 (designed binder)
chain: MGGGGSAAAGDEAQHWENQGAAYAARGDYDRAIEYYGRALELDPNNAWAWWELGVAYAARGDYDRAIEYYERALELDPDDATTWSRLGHAYAARGDYDRAIEYYERALELDPEDETARYLLEHARRARQGQAGQGGGSGLNDIFEAQKIEWHECHHHHHH
modifications: biotinylated (AviTag system)
Consider B1, for which the dissociation constant (Kd) in assay [1] was 41 nM; in assay [2], 8 nM; in [3], below 1 nM; in [4], 41 nM; in assay [5], 8 nM; in assay [6], below 1 nM.

B2: affinity ligand SEQ ID NO: 90 (designed binder)
chain: B1 chain with H15C, G37E, E105V
modifications: biotinylated (AviTag system)
For B2, the Kd is 51 nM in assay [1]; 12 nM in assay [2]; below 1 nM in assay [3]; 51 nM in [4]; 12 nM in [5]; below 1 nM in assay [6].

B3: affinity ligand SEQ ID NO: 92 (designed binder)
chain: B1 chain with H15R, G37E, D43E, T83A, E102G, D114N
modifications: biotinylated (AviTag system)
On to B3, for which the Kd in assay [1] was 28 nM; in assay [2], 8 nM; in assay [3] it was below 1 nM; in [4] it was 28 nM; in assay [5] it was 8 nM; in [6] it was below 1 nM.

B4: affinity ligand SEQ ID NO: 41 (designed binder)
chain: MAQAAAGDEAQRWETLGAAYAARGDYDRAIEYYQRALELDPNNAWAWWELGVAYAARGDYDRAIEYYQRALELDPDDAAAWRRLGHAYAARGDYDRAIEYYERALELDPEDELARRILEDARRARQGQAGQGGGSGLNDIFEAQKIEWHECHHHHHH
modifications: biotinylated (AviTag system)
Take B4: the Kd amounted to 15 nM in [4], 24 nM in [5] and 3 nM in assay [6].

B5: affinity ligand SEQ ID NO: 162 (designed binder)
chain: MGLAEAAAREAAARAADEAERWYDLGAAYAARGDYDRAIEYYQRALELDPNDAWAWWELGVAYAARGDYDRAIEYYQRALELDLNNAVAWARLGIAYAARGDYDRAIEYYQRALELDPNNEVARDALEYARRARRHHHHHH
modifications: biotinylated (AviTag system)
For the molecule B5, the dissociation constant Kd in assay [7] was 665 nM; in assay [8], 25 nM; in assay [9], below 1 nM.

Values taken from US20250059258A1.
